Results reported in the RNAGym collection of RNA variant scans (doi:10.1021/acssynbio.7b00057).

B1: Pistol ribozyme (parent)
chain: GGGUCGUUGUUCCAUAAUCGCGUGGAUAUGGCACGCAAGUUUCUACCGGGCACCGUAAAUGUCCGACUGGAGCCGUUCGGGCGGCUAUAAACAGACCUCAGGCCCGAAGCGUGGCGGCACCUGCCGCCGGUGGUAAAAAAGAUCGGAAGAGCACACGUCU

Variants of: B1
Assay: aptazyme ON/OFF ratio, guanine; higher = stronger switching; co-transcriptional cleavage with and without guanine

Row | Variant | aptazyme ON/OFF ratio
1 | U7G U8C G9U U10C U11A C12A C13A | 1.52
2 | U7G U8C G9U U10C U11A C12A C13G | 1.31
3 | U7G U8C G9U U10C U11A C12A C13U | 2.1
4 | U7G U8C G9C U10G U11C C12U C13A | 1.26
5 | U7G U8C G9C U10G U11C C12U C13G | 1.32
6 | U7G U8C G9C U10G U11C C12U C13U | 1.4
7 | U7G U8C G9U U10A C13A | 1.35
8 | U7G U8C G9U U10A C13U | 2.29
9 | U7G U8C G9U U10A C13G | 1.08
10 | U7G U8C G9C U11G C12G C13G | 1.12
11 | U7G U8C G9C U11G C12G C13A | 1.12
12 | U7G U8C G9C U11G C12G C13U | 1.1
13 | U7G U8C G9U U10A U11C C13A | 1.42
14 | U7G U8C G9U U10A U11C C13G | 1.05
15 | U7G U8C G9U U10A U11C C13U | 1.18
16 | U7G U8C G9U U10A C12G C13G | 1.08
17 | U7G U8C G9U U10A C12G C13A | 1.13
18 | U7G U8C G9U U10A C12G C13U | 1.22
19 | U7G U8C G9C U11G C12A C13G | 1.33
20 | U7G U8C G9C U11G C12A C13U | 1.23
21 | U7G U8C G9C U11G C12A C13A | 1.14
22 | U7G U8C G9C U11C C12A C13G | 1.21
23 | U7G U8C G9C U11C C12A C13U | 1.53
24 | U7G U8C G9C U11C C12A C13A | 1.11

Row | Variant | aptazyme ON/OFF ratio
25 | U7G U8C G9U C12A C13U | 1.2
26 | U7G U8C G9U C12A C13G | 1.26
27 | U7G U8C G9U C12A C13A | 1.34
28 | U7G U8C G9C U10C U11C C12U C13U | 1.03
29 | U7G U8C G9C U10C U11C C12U C13A | 1.05
30 | U7G U8C G9C U10C U11C C12U C13G | 1.21
31 | U7G U8C G9C U10C U11A | 1.39
32 | U7G U8C G9C U10C U11C | 1.05
33 | U7G U8C G9C U10C U11G | 1.05
34 | U7G U8C G9C U10A U11A C12G | 1.19
35 | U7G U8C G9C U10A U11A C12U | 1.16
36 | U7G U8C G9U U10A C12U C13A | 1.21
37 | U7G U8C G9U U10A C12U C13G | 1.16
38 | U7G U8C G9U U10A C12U C13U | 1.16
39 | U7G U8C G9U U10C U11A | 3.02
40 | U7G U8C G9C U10C U11G C12G | 1.06
41 | U7G U8C G9C U10C U11G C12U | 1.1
42 | U7G U8C G9C U10C U11G C12A | 1.14
43 | U7G U8C G9U C12U C13G | 1.16
44 | U7G U8C G9U C12U C13U | 1.41
45 | U7G U8C G9U C12U C13A | 1.18
46 | U7G U8C G9C U10G C12G C13G | 1.07
47 | U7G U8C G9C U10G C12G C13U | 1.1
48 | U7G U8C G9C U10G C12G C13A | 1.09

Row | Variant | aptazyme ON/OFF ratio
49 | U7G U8C G9U C12G C13A | 1.18
50 | U7G U8C G9U C12G C13U | 1.32
51 | U7G U8C G9U C12G C13G | 1.32
52 | U7G U8C G9C U10A U11C | 1.18
53 | U7G U8C G9C U10A U11G | 1.51
54 | U7G U8C G9C U10A U11C C12U C13U | 1.09
55 | U7G U8C G9C U10A U11C C12U C13A | 1.36
56 | U7G U8C G9C U10A U11C C12U C13G | 1.3
57 | U7G U8C G9C U11C C12G | 1.34
58 | U7G U8C G9C U11C C12A | 1.9
59 | U7G U8C G9C U11C C12U | 1.78
60 | U7G U8C G9C U10G C12A C13G | 1.1
61 | U7G U8C G9C U10G C12A C13U | 1.13
62 | U7G U8C G9C U10G C12A C13A | 1.1
63 | U7G U8C G9U U10C C12A C13U | 1.58
64 | U7G U8C G9U U10C C12A C13G | 1.27
65 | U7G U8C G9U U10C C12A C13A | 1.49
66 | U7G U8C G9U U10A U11A | 4.34
67 | U7G U8C G9U U10A U11G | 2.29
68 | U7G U8C G9U U10A U11C | 1.37
69 | U7G U8C G9C U10A U11C C13U | 1.25
70 | U7G U8C G9C U10A U11C C13G | 1.26
71 | U7G U8C G9C U10A U11C C13A | 1.41
72 | U7G U8C G9C U10G U11G C12U C13U | 1.12

Row | Variant | aptazyme ON/OFF ratio
73 | U7G U8C G9C U10G U11G C12U C13G | 1.09
74 | U7G U8C G9C U10G U11G C12U C13A | 1.09
75 | U7G U8C G9C U10G U11A C12U C13A | 1.03
76 | U7G U8C G9C U10G U11A C12U C13U | 1.03
77 | U7G U8C G9C U10G U11A C12U C13G | 1.04
78 | U7G U8C G9C U11G C12U C13U | 1.37
79 | U7G U8C G9C U11G C12U C13A | 1.3
80 | U7G U8C G9C U11G C12U C13G | 1.33
81 | U7G U8C G9U U10C C12G C13U | 1.29
82 | U7G U8C G9U U10C C12G C13A | 1.31
83 | U7G U8C G9U U10C C12G C13G | 1.22
84 | U7G U8C G9C U11G C13A | 1.24
85 | U7G U8C G9C U11G C13G | 1.17
86 | U7G U8C G9C U11G C13U | 1.25
87 | U7G U8C G9C U10C U11G C12U C13U | 1.08
88 | U7G U8C G9C U10C U11G C12U C13G | 1.08
89 | U7G U8C G9C U10C U11G C12U C13A | 1.08
90 | U7G U8C G9C U10G C12U C13G | 1.08
91 | U7G U8C G9C U10G C12U C13A | 1.11
92 | U7G U8C G9C U10G C12U C13U | 1.14
93 | U7G U8C G9C U10A U11C C12G C13U | 1.31
94 | U7G U8C G9C U10A U11C C12G C13A | 1.33
95 | U7G U8C G9C U10A U11C C12G C13G | 1.14
96 | U7G U8C G9U U10A U11C C12U C13U | 1.56

Row | Variant | aptazyme ON/OFF ratio
97 | U7G U8C G9U U10A U11C C12U C13A | 1.48
98 | U7G U8C G9U U10A U11C C12U C13G | 1.25
99 | U7G U8C G9C U10G U11C | 1.15
100 | U7G U8C G9C U10G U11G | 1.17
101 | U7G U8C G9C U10G U11A | 1.11
102 | U7G U8C G9C U10C U11C C12A C13U | 1.05
103 | U7G U8C G9C U10C U11C C12A C13A | 1.05
104 | U7G U8C G9C U10C U11C C12A C13G | 1.21
105 | U7G U8C G9C U11C C13U | 1.38
106 | U7G U8C G9C U11C C13A | 1.46
107 | U7G U8C G9C U11C C13G | 1.05
108 | U7G U8C G9U | 4.98
109 | U7G U8C G9U U10A U11A C12U | 2.3
110 | U7G U8C G9U U10A U11A C12A | 1.63
111 | U7G U8C G9U U10A U11A C12G | 1.6
112 | U7G U8C G9C U10A U11A C13G | 1.1
113 | U7G U8C G9C U10A U11A C13U | 1.23
114 | U7G U8C G9C U10A U11A C13A | 1.09
115 | U7G U8C G9C U10A U11G C12G C13U | 1.1
116 | U7G U8C G9C U10A U11G C12G C13A | 1.08
117 | U7G U8C G9C U10A U11G C12G C13G | 1.12
118 | U7G U8C G9C U10G U11C C12G C13G | 1.15
119 | U7G U8C G9C U10G U11C C12G C13U | 1.19
120 | U7G U8C G9C U10G U11C C12G C13A | 1.29

Row | Variant | aptazyme ON/OFF ratio
121 | U7G U8C G9C U10A U11G C12A C13G | 1.12
122 | U7G U8C G9C U10A U11G C12A C13A | 1.1
123 | U7G U8C G9C U10A U11G C12A C13U | 1.11
124 | U7G U8C G9C U10G U11C C12A | 1.36
125 | U7G U8C G9C U10G U11C C12G | 1.21
126 | U7G U8C G9C U10G U11C C12U | 1.12
127 | U7G U8C G9C U11A C12U | 1.23
128 | U7G U8C G9C U11A C12G | 1.2
129 | U7G U8C G9C U11A C12A | 1.19
130 | U7G U8C G9C U10G C12G | 1.12
131 | U7G U8C G9C U10G C12U | 1.14
132 | U7G U8C G9C U10G C12A | 1.13
133 | U7G U8C G9C U10C U11C C12G | 1.06
134 | U7G U8C G9C U10C U11C C12A | 1.05
135 | U7G U8C G9C U10C U11C C12U | 1.02
136 | U7G U8C G9C U11C C12U C13G | 1.1
137 | U7G U8C G9C U11C C12U C13U | 1.34
138 | U7G U8C G9C U11C C12U C13A | 1.22
139 | U7G U8C G9C U10C U11G C12G C13U | 1.05
140 | U7G U8C G9C U10C U11G C12G C13A | 1.1
141 | U7G U8C G9C U10C U11G C12G C13G | 1.09
142 | U7G U8C G9U U10A U11A C12G C13G | 1.16
143 | U7G U8C G9U U10A U11A C12G C13U | 1.19
144 | U7G U8C G9U U10A U11A C12G C13A | 1.07

Row | Variant | aptazyme ON/OFF ratio
145 | U7G U8C G9C U10C U11A C12U C13G | 1.12
146 | U7G U8C G9C U10C U11A C12U C13U | 1.05
147 | U7G U8C G9C U10C U11A C12U C13A | 1.04
148 | U7G U8C G9C U10C U11C C12G C13U | 1.04
149 | U7G U8C G9C U10C U11C C12G C13A | 1.09
150 | U7G U8C G9C U10C U11C C12G C13G | 1.04
151 | U7G U8C G9U U10A U11G C12G C13G | 1.13
152 | U7G U8C G9U U10A U11G C12G C13U | 1.1
153 | U7G U8C G9U U10A U11G C12G C13A | 1.13
154 | U7G U8C G9U U10A U11A C13A | 1.3
155 | U7G U8C G9U U10A U11A C13U | 1.79
156 | U7G U8C G9U U10A U11A C13G | 1.08
157 | U7G U8C G9C U10G U11G C12A C13G | 1.13
158 | U7G U8C G9C U10G U11G C12A C13U | 1.1
159 | U7G U8C G9C U10G U11G C12A C13A | 1.11
160 | U7G U8C G9C U10G U11A C12U | 1.04
161 | U7G U8C G9C U10G U11A C12G | 1.17
162 | U7G U8C G9C U10G U11A C12A | 1.28
163 | U7G U8C G9C U11A C12U C13A | 1.09
164 | U7G U8C G9C U11A C12U C13U | 1.22
165 | U7G U8C G9C U11A C12U C13G | 1.13
166 | U7G U8C G9U U10C U11A C12U C13G | 1.39
167 | U7G U8C G9U U10C U11A C12U C13U | 1.9
